One substance from patent publication US6864054 can be followed below.

In the assay the target is endogenous p53 (MRC5.SV40 cells; U-2 OS cells) (UniProt P04637). Put plainly: cell-based or functional assay.
Sequence of endogenous p53 (MRC5.SV40 cells; U-2 OS cells) (P04637 whole entry): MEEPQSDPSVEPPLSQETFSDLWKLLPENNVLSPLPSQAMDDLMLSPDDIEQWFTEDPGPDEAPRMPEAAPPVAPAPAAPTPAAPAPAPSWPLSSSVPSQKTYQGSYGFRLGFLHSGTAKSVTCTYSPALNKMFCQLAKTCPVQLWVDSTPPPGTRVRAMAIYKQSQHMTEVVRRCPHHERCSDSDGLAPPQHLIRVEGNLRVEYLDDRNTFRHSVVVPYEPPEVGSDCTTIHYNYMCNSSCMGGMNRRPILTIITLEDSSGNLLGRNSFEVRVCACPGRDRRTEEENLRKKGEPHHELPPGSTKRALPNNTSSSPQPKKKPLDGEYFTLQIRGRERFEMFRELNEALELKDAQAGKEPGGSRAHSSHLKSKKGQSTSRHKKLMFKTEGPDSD

Sequence of full-length CBP, P45481 2-2441 (P45481 2-2441 limits assumed): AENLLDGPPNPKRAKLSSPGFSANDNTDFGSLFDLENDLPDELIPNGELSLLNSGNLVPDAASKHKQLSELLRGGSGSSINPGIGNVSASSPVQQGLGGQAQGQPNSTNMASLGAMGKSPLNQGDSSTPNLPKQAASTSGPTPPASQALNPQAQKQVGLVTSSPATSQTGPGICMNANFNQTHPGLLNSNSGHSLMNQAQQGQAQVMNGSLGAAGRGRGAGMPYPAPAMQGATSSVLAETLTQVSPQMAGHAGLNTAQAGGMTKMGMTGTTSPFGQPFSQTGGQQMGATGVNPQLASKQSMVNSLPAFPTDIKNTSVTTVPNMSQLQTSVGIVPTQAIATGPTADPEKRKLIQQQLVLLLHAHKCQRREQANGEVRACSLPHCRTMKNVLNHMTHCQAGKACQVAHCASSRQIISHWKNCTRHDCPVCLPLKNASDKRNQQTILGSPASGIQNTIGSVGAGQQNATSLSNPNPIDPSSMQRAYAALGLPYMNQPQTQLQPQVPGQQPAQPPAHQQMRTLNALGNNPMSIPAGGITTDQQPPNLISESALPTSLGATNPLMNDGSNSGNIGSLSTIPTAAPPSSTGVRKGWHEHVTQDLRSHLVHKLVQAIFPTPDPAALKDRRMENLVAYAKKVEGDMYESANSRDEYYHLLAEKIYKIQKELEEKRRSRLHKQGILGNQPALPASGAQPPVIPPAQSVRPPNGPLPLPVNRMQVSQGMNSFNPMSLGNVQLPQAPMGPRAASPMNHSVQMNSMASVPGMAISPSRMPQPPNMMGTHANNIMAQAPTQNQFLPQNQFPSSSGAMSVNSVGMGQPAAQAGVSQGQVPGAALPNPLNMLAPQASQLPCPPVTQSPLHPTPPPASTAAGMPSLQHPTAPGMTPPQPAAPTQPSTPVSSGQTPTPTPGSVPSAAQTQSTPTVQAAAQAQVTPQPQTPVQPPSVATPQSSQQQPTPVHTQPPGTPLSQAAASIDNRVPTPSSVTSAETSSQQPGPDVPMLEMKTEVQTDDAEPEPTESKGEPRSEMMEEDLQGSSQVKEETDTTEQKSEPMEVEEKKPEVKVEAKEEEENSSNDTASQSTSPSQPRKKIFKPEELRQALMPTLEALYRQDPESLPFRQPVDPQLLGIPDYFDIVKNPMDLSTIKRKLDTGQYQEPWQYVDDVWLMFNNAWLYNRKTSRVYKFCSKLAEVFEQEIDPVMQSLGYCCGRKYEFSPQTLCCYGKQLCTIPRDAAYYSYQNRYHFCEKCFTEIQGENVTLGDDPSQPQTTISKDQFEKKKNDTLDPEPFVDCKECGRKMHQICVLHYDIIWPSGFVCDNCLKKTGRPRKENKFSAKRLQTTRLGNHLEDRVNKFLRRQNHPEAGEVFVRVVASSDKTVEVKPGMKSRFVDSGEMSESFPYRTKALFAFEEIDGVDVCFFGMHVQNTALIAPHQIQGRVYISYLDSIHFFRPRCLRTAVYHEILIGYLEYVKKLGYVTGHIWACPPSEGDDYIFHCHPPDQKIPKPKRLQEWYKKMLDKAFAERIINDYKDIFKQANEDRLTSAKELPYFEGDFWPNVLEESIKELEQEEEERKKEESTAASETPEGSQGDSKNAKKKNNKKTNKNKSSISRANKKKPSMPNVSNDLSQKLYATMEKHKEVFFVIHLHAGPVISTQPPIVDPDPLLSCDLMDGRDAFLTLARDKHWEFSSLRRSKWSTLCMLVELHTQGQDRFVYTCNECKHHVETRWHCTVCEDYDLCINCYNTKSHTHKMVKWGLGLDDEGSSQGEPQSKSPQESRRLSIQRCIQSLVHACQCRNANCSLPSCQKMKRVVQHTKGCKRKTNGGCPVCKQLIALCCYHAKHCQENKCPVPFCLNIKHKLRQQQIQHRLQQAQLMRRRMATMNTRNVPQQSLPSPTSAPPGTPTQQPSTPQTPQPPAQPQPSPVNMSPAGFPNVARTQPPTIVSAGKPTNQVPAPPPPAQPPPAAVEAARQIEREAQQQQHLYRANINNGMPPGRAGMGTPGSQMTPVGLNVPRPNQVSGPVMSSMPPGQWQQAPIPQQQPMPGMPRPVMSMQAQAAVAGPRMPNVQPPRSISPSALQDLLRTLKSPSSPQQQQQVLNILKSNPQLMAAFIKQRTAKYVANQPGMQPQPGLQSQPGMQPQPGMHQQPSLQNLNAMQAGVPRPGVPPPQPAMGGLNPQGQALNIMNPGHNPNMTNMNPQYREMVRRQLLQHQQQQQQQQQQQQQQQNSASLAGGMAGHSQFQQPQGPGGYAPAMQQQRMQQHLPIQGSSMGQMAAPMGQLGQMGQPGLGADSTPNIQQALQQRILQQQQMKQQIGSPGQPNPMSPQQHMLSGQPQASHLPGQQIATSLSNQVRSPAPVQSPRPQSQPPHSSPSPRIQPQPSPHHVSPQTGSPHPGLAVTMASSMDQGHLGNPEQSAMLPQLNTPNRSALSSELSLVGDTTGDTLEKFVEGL

Substance full-length CBP, P45481 2-2441 yielded a p53-dependent transcription (PG13CAT reporter, U2-OS cells) of 7 fold.
